For 30 molecules, IC50, KD-WT/KD-mut and Kd results are on record in patent publication US20210238260A1 (published 2021).

Numbering of substitutions follows the chain as printed. Names and notes keep the numbering of the source.

Sequences and labels used below:
T1: Factor VIIIa (FVIIIa), from recombinant FVIII (Kogenate FS; Bayer healthcare) activated with alpha-thrombin (UniProt P00451 20-2351)
T1 sequence (looked up): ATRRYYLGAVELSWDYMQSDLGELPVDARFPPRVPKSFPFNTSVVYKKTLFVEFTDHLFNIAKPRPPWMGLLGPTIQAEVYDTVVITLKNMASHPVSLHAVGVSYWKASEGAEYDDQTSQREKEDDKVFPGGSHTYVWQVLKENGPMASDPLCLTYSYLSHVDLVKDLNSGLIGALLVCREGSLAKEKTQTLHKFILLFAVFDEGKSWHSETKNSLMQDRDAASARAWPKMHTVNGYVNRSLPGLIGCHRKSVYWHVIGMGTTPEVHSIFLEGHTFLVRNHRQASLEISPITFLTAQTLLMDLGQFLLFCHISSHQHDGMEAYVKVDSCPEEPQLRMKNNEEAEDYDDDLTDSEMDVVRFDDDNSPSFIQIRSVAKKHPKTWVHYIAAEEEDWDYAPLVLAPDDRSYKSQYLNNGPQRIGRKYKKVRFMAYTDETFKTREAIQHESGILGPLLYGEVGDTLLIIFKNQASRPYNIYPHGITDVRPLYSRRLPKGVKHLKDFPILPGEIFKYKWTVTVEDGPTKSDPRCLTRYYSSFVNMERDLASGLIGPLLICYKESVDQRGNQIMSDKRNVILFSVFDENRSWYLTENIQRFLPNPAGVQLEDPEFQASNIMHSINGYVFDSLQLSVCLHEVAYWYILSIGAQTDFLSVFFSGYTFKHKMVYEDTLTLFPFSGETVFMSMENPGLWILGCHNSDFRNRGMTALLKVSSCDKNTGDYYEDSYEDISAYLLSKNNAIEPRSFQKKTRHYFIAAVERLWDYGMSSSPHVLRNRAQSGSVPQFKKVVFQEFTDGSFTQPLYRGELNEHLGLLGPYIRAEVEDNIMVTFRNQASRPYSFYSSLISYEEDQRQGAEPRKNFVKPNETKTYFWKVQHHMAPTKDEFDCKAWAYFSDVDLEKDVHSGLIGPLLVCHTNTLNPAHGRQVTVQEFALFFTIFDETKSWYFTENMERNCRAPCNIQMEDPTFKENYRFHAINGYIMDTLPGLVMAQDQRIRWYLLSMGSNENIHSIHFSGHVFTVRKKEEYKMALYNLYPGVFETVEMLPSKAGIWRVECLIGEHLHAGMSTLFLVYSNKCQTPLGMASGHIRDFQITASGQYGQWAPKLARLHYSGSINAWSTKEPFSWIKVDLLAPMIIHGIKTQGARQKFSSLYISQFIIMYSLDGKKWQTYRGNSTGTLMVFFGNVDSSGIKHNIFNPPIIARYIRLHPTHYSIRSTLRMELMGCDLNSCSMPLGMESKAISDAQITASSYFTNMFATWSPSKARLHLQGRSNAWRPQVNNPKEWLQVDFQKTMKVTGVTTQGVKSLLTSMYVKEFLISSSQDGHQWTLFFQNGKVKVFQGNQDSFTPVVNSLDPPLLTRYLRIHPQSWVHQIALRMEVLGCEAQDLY

B1: FIXa-K247N/N249S/R318Y/R338E/E410N (enzyme)
chain 1: YNSGKLEEFVQGNLERECMEEKCSFEEAREVFENTERTTEFWKQYVDGDQCESNPCLNGGSCKDDINSYECWCPFGFEGKNCELDVTCNIKNGRCEQFCKNSADNKVVCSCTEGYRLAENQKSCEPAVPFPCGRVSVSQTSKLTR
chain 2: VVGGEDAKPGQFPWQVVLNGKVDAFCGGSIVNEKWIVTAAHCVETGVKITVVAGEHNIEETEHTEQNRSVIRIIPHHNYNAAINKYNHDIALLELDEPLVLNSYVTPICIADKEYTNIFLKFGSGYVSGWGRVFHKGYSALVLQYLRVPLVDRATCLESTKFTIYNNMFCAGFHEGGRDSCQGDSGGPHVTEVEGTSFLTGIISWGEECAMKGKYGIYTKVSRYVNWIKNKTKLT
notes: also called K82N/N84S/R150Y/R170E/E240N
B2: FIXa-K247N/N249S/R318Y/R338E/R403E/E410N (enzyme)
chain 1: B1 chain 1
chain 2: B1 chain 2 with R223E
notes: also called K82N/N84S/R150Y/R170E/R233E/E240N
B3: FIXa-R318Y/R338E/T412A (enzyme)
chain 1: B1 chain 1
chain 2: B1 chain 2 with N67K, S69N, N230E, T232A
notes: also called R150Y/R170E/T242A
B4: FIXa-Y155F/K247N/N249S/R318Y/R338E/E410N (enzyme)
chain 1: B1 chain 1
chain 2: B1 chain 2
B5: FIXa-D104N/K106S/K228N/K247N/N249S (enzyme)
chain 1: B1 chain 1 with D104N, K106S
chain 2: B1 chain 2 with K48N, Y138R, E158R, N230E
B6: FIXa-R318Y/R338E/E410N/T412V (enzyme)
chain 1: B1 chain 1
chain 2: B1 chain 2 with N67K, S69N, T232V
notes: also called R150Y/R170E/E240N/T242V
B7: FIXa-D104N/K106S/I251S/R318Y/R338E/E410N (enzyme)
chain 1: B1 chain 1 with D104N, K106S
chain 2: B1 chain 2 with N67K, S69N, I71S
B8: FIXa-I251S/R318Y/R338E/E410N (enzyme)
chain 1: B1 chain 1
chain 2: B1 chain 2 with N67K, S69N, I71S
notes: also called I86S/R150Y/R170E/E240N; I251S/R318Y/E410N/R338E
B9: FIXa-A103N/N105S/K247N/N249S/R318Y/R338E/R403E/E410N (enzyme)
chain 1: B1 chain 1 with A103N, N105S
chain 2: B1 chain 2 with R223E
B10: FIXa-Y259F/K265T/Y345T (enzyme)
chain 1: B1 chain 1
chain 2: B1 chain 2 with N67K, S69N, Y79F, K85T, Y138R, E158R, Y165T, N230E
notes: also called Y94F/K98T/Y177T
B11: FIXa-R318Y/R338E/E410S (enzyme)
chain 1: B1 chain 1
chain 2: B1 chain 2 with N67K, S69N, N230S
notes: also called R150Y/R170E/E240S
B12: FIXa-D104N/K106S/Y155F/K228N/K247N/N249S (enzyme)
chain 1: B1 chain 1 with D104N, K106S
chain 2: B1 chain 2 with K48N, Y138R, E158R, N230E
B13: FIXa-Y155F/N260S/R318Y/R338E/R403E/E410N (enzyme)
chain 1: B1 chain 1
chain 2: B1 chain 2 with N67K, S69N, N80S, R223E
B14: FIXa variant R318Y/R338E/T343R/N346Y/R403E/E410N (enzyme)
light: B1 chain 1
heavy: B1 chain 2 with N67K, S69N, T163R, N166Y, R223E
notes: also called R150Y/R170E/T175R/N178Y/R233E/E240N
B15: FIXa variant Y259F/K265T/Y345T (enzyme)
light: B1 chain 1
heavy: B1 chain 2 with N67K, S69N, Y79F, K85T, Y138R, E158R, Y165T, N230E
notes: also called Y94F/K98T/Y177T
B16: FIXa variant Y155F/K247N/N249S/N260S (enzyme)
light: B1 chain 1
heavy: B1 chain 2 with N80S, Y138R, E158R, N230E
B17: FIXa variant Y155F/K228N/R318Y/R338E/R403E/E410N (enzyme)
light: B1 chain 1
heavy: B1 chain 2 with K48N, N67K, S69N, R223E
B18: FIXa variant Y155F/K247N/N249S/R318Y/R338E/E410N (enzyme)
light: B1 chain 1
heavy: B1 chain 2
B19: FIXa variant R318Y/R338E/T343R/R403E/E410N (enzyme)
light: B1 chain 1
heavy: B1 chain 2 with N67K, S69N, T163R, R223E
notes: also called R150Y/R170E/T175R/R233E/E240N
B20: FIXa-R318Y/R403E/E410N (enzyme)
chain 1: B1 chain 1
chain 2: B1 chain 2 with N67K, S69N, E158R, R223E
notes: also called R150Y/R233E/E240N (chymotrypsin numbering)
B21: FIXa-D203N/F205T/R318Y (enzyme)
chain 1: B1 chain 1
chain 2: B1 chain 2 with D23N, F25T, N67K, S69N, E158R, N230E
notes: also called D39N/F41T/R150Y (chymotrypsin numbering)
B22: FIXa-D203N/F205T/R338E (enzyme)
chain 1: B1 chain 1
chain 2: B1 chain 2 with D23N, F25T, N67K, S69N, Y138R, N230E
notes: also called D39N/F41T/R170E (chymotrypsin numbering)
B23: FIXa-R338E/R403E/E410N (enzyme)
chain 1: B1 chain 1
chain 2: B1 chain 2 with N67K, S69N, Y138R, R223E
notes: also called R170E/R233E/E240N (chymotrypsin numbering)
B24: FIXa-D203N/F205T/R338E/R403E (enzyme)
chain 1: B1 chain 1
chain 2: B1 chain 2 with D23N, F25T, N67K, S69N, Y138R, R223E, N230E
notes: also called D39N/F41T/R170E/R233E (chymotrypsin numbering)
B25: FIXa-D203N/F205T/E410N (enzyme)
chain 1: B1 chain 1
chain 2: B1 chain 2 with D23N, F25T, N67K, S69N, Y138R, E158R
notes: also called D39N/F41T/E240N (chymotrypsin numbering)
B26: FIXa-K228N/R338E/R403E (enzyme)
chain 1: B1 chain 1
chain 2: B1 chain 2 with K48N, N67K, S69N, Y138R, R223E, N230E
notes: also called K63N/R170E/R233E (chymotrypsin numbering)
B27: FIXa-D203N/F205T/K228N (enzyme)
chain 1: B1 chain 1
chain 2: B1 chain 2 with D23N, F25T, K48N, N67K, S69N, Y138R, E158R, N230E
notes: also called D39N/F41T/K63N (chymotrypsin numbering)
B28: FIXa-D203N/F205T/R338A (enzyme)
chain 1: B1 chain 1
chain 2: B1 chain 2 with D23N, F25T, N67K, S69N, Y138R, E158A, N230E
notes: also called D39N/F41T/R170A (chymotrypsin numbering)
B29: FIXa-D104N/K106S/R318Y/R338E/E410N (enzyme)
chain 1: B1 chain 1 with D104N, K106S
chain 2: B1 chain 2 with N67K, S69N
notes: also called D104N/K106S/R318Y/E410N/R338E
B30: FIXa-K228N/R318Y/E410N (enzyme)
chain 1: B1 chain 1
chain 2: B1 chain 2 with K48N, N67K, S69N, E158R
notes: also called K63N/R150Y/E240N (chymotrypsin numbering)

The first test concerns the target T2, plasma purified human AT-III (antithrombin III) (human, UniProt P01008 33-464).
T2 construct: also called AT-III/UFH (in complex with unfractionated heparin)
Description: K0.5: AT-III/UFH titrated on FIXa, residual activity on fluorogenic substrate.
Molecule B1 returned a half-inhibitory concentration (IC50) of 1510 nM.
B2 showed an IC50 of 8080 nM.
For B3, the concentration for half-maximal inhibition (IC50) came out at 7660 nM.
For the molecule B4, the half-maximal inhibitory concentration (IC50) stood at 3880 nM.
Still for that read-out and setting: as for B5, the figure is 41 nM; as for B6, 4870 nM; as for B7, 8980 nM.
Same read-out and setting: to B8 belongs 5860 nM; to B9, 2500 nM; to B10, 6 nM.
Molecule B11 came in with an IC50 of 5400 nM.
The same measure, in the same setting: as for B12, the figure is 32 nM.
For the molecule B13, inhibition was half-maximal at 9700 nM (IC50).

In a further test the target is T1, Factor VIIIa (FVIIIa), from recombinant …. In words: ratio of KD-app of Catalyst Biosciences WT FIXa to KD-app of the variant, same Xase assay.
Description: (§1) The activity of alpha-thrombin was then quenched by the addition of a highly specific thrombin inhibitor, hirudin, prior to initiating the assay.
For B14, the KD-WT/KD-mut came out at 6.1 fold.
Regarding B15, the KD-WT/KD-mut came to 0.8 fold.
B16: the KD-WT/KD-mut worked out at 0.6 fold.
Consider B17, for which the KD-WT/KD-mut came to 3.1 fold.
Consider B18, for which the KD-WT/KD-mut amounted to 12.8 fold.
Take B19: the KD-WT/KD-mut came out at 6.6 fold.

The next test addresses T3, antithrombin III (plasma purified human AT-III), used as the AT-III/unfractionated heparin complex (human, UniProt P01008 33-464).
T3 construct: also called AT-III/UFH
Description: K0.5: AT-III/UFH titrated against FIXa, 10 s, residual cleavage of Mesyl-D-CHG-Gly-Arg-AMC.
In turn, B20 displayed a half-inhibitory concentration (IC50) of 7070 nM.
B21 registered an IC50 of 7230 nM.
In the case of B22, it took 1170 nM to reach half-maximal inhibition (IC50).
As for B23, the half-inhibitory concentration (IC50) came out at 2350 nM.
Same read-out and setting: to B24 belongs 1520 nM.
Same read-out and setting: to B25 belongs 377 nM; to B26, 1680 nM.
Take B27: the IC50 was found to be 822 nM.
Still for that read-out and setting: as for B28, the figure is 423 nM; as for B29, 6330 nM.
In turn, B30 registered a concentration for half-maximal inhibition (IC50) of 475 nM.

In another test the target is T1, Factor VIIIa (FVIIIa), from recombinant …. Description: apparent functional KD (KD-app): FX activation rate vs FVIIIa titration, fluorogenic Xase assay with PC/PS vesicles and Ca2+.
Description: as §1
As for B14, the Kd worked out at 15.6 nM.
As for B15, the Kd came to 115 nM.
In the case of B16, the Kd came to 167 nM.
Turning to B17, the Kd turned out to be 31.2 nM.
Turning to B18, the Kd is 7.4 nM.
On to B19, for which the Kd was 14.5 nM.
